Measured values published in the RNAGym collection of RNA variant scans (doi:10.7554/elife.80360).

B1: CPEB3 Ribozyme (parent)
chain: GGGGGCCACAGCAGAAGCGUUCACGUCGCGGCCCCUGUCAGAUUCUGGUGAAUCUGCGAAUUCUGCUGU

Variants of: B1
Assay: self-cleavage, relative activity (ratio to wild type); higher = more cleavage; co-transcriptional

| Variant | self-cleavage |
| --- | --- |
| GUGGGCCACAGCAGAAGCGUUCACGUCGCGGCCCCUCUCAGAUUCUGGUGAAUCUGCGAAUUCUGCUGU [G2U G37C] | 0.0385 |
| GUGGGCCACAGCAGAAGCGUUCACGUCGCGACCCCUGUCAGAUUCUGGUGAAUCUGCGAAUUCUGCUGU [G2U G31A] | 0.0769 |
| GUGGGCCACAGCAGAAGCGUUCACGUCGCGGCCCCUGUCGGAUUCUGGUGAAUCUGCGAAUUCUGCUGU [G2U A40G] | 0.0279 |
| GUGGGCCACAGCAGAAGCGUUCACGACGCGGCCCCUGUCAGAUUCUGGUGAAUCUGCGAAUUCUGCUGU [G2U U26A] | 0.0542 |
| GUGGGCCACAGCAGAAGCGUUCACGCCGCGGCCCCUGUCAGAUUCUGGUGAAUCUGCGAAUUCUGCUGU [G2U U26C] | 0.077 |
| GUGGGCCACAGCAGAAGCGUUCACGUCGCGGCCCCUGUCAGAUUCUGGUGAAUCUGCGAAUUUUGCUGU [G2U C63U] | 0.117 |
| GUGGGCCACAGCAGAAGCGUUCACGUCGCGGCCCCUGUCAGAUUCUGGUGAAUCUGCGAAUUAUGCUGU [G2U C63A] | 0.127 |
| GUGGGCCACAGCAGAAGCGUUCACGUCGCGGCCCCUGUCAGAUUCUGGUGAAUCUGCGAAUUGUGCUGU [G2U C63G] | 0.102 |
| GUGGGCCACAGCAGAAGUGUUCACGUCGCGGCCCCUGUCAGAUUCUGGUGAAUCUGCGAAUUCUGCUGU [G2U C18U] | 0.0941 |
| GUGGGCCACAGCAGAAGAGUUCACGUCGCGGCCCCUGUCAGAUUCUGGUGAAUCUGCGAAUUCUGCUGU [G2U C18A] | 0.0495 |
| GUGGGCCACAGCAGGAGCGUUCACGUCGCGGCCCCUGUCAGAUUCUGGUGAAUCUGCGAAUUCUGCUGU [G2U A15G] | 0.0981 |
| GUGGCCCACAGCAGAAGCGUUCACGUCGCGGCCCCUGUCAGAUUCUGGUGAAUCUGCGAAUUCUGCUGU [G2U G5C] | 0.0693 |
| GUGGACCACAGCAGAAGCGUUCACGUCGCGGCCCCUGUCAGAUUCUGGUGAAUCUGCGAAUUCUGCUGU [G2U G5A] | 0.0678 |
| GUGGGCCACAGCAGAAGCGUUCACGUCGCGGCCUCUGUCAGAUUCUGGUGAAUCUGCGAAUUCUGCUGU [G2U C34U] | 0.103 |
| GUGGGCCACAGCAGAAGCGUUCACGUCGCGGCCCCUGUCAGAUUCUAGUGAAUCUGCGAAUUCUGCUGU [G2U G47A] | 0.0706 |
| GUUGGCCACAGCAGAAGCGUUCACGUCGCGGCCCCUGUCAGAUUCUGGUGAAUCUGCGAAUUCUGCUGU [G2U G3U] | 0.0485 |
| GGAGGCCACAGCAGAAGCGUUCUCGUCGCGGCCCCUGUCAGAUUCUGGUGAAUCUGCGAAUUCUGCUGU [G3A A23U] | 0.79 |
| GUGGGCCACAGCAGAAGCGUUCGCGUCGCGGCCCCUGUCAGAUUCUGGUGAAUCUGCGAAUUCUGCUGU [G2U A23G] | 0.0867 |
| GUGGGCCACAGCAGAAGCGUUCACGUCGCGGCCCCUGUCAGAUUCUGGUGAAUCUGCGAAUUCUGCUGC [G2U U69C] | 0.208 |
| GUGGGCCACAGCAGAAGCGUUCACGUCGCGGCCCCUGUCAGAUUCUGGUGAAUCUGCGAAUUCUGCUGA [G2U U69A] | 0.124 |

| Variant | self-cleavage |
| --- | --- |
| GUGGGCCACAGCAGAAGCGUUCACGUCGCGGCCCCUGUCAGAUUCUGGUGAUUCUGCGAAUUCUGCUGU [G2U A52U] | 0.0917 |
| GUGGGCCACAGCAGAAGCGUUCACGUCGCGGCCCCUGUCAGAUUCUGGUGAGUCUGCGAAUUCUGCUGU [G2U A52G] | 0.0867 |
| GUGGGCCACAGCAGACGCGUUCACGUCGCGGCCCCUGUCAGAUUCUGGUGAAUCUGCGAAUUCUGCUGU [G2U A16C] | 0.0327 |
| GUGGGCCACAGCAGAGGCGUUCACGUCGCGGCCCCUGUCAGAUUCUGGUGAAUCUGCGAAUUCUGCUGU [G2U A16G] | 0.0825 |
| GUGGGCCACUGCAGAAGCGUUCACGUCGCGGCCCCUGUCAGAUUCUGGUGAAUCUGCGAAUUCUGCUGU [G2U A10U] | 0.138 |
| GUGGGCCACGGCAGAAGCGUUCACGUCGCGGCCCCUGUCAGAUUCUGGUGAAUCUGCGAAUUCUGCUGU [G2U A10G] | 0.116 |
| GUGGGCCACAGCAAAAGCGUUCACGUCGCGGCCCCUGUCAGAUUCUGGUGAAUCUGCGAAUUCUGCUGU [G2U G14A] | 0.0496 |
| GGAGGCCACAGCAGAAGCGUUCACGUCGCGGCCCCUGUCUGAUUCUGGUGAAUCUGCGAAUUCUGCUGU [G3A A40U] | 0.379 |
| GGAGGCCACAGCAGAAGCGUUCACGUCGCGGCCCCUGUCCGAUUCUGGUGAAUCUGCGAAUUCUGCUGU [G3A A40C] | 0.166 |
| GUGGGCCACAGCAGAACCGUUCACGUCGCGGCCCCUGUCAGAUUCUGGUGAAUCUGCGAAUUCUGCUGU [G2U G17C] | 0.0396 |
| GUGGGCCACAGCAGAAUCGUUCACGUCGCGGCCCCUGUCAGAUUCUGGUGAAUCUGCGAAUUCUGCUGU [G2U G17U] | 0.039 |
| GUGGGCCACAGCAGAAGCGUUCACGUCUCGGCCCCUGUCAGAUUCUGGUGAAUCUGCGAAUUCUGCUGU [G2U G28U] | 0.0242 |
| GGAGGCCACAGCCGAAGCGUUCACGUCGCGGCCCCUGUCAGAUUCUGGUGAAUCUGCGAAUUCUGCUGU [G3A A13C] | 0.298 |
| GUGGGCCACAGCAGAAGCGUUCACGUCGCGGCCCCUGUCAGAUUCUGGUGAAUCUGCGAAAUCUGCUGU [G2U U61A] | 0.0837 |
| GUGGGCCACAGCAGAAGCGUUCACGUCGCGGCCCCUGUCAGAUUCUGGUGAAUCUGCGAAGUCUGCUGU [G2U U61G] | 0.112 |
| GUGGGCCACAGCAGAAGCGUUCACGUCGCGGCCCCUGUCAGAUUCUGGUGAAUCCGCGAAUUCUGCUGU [G2U U55C] | 0.0989 |
| GUGGGCCACAGCAGAAGCGUUCACGUCGCGGCCCCUGUCAGAUUCUGGUGAAUCGGCGAAUUCUGCUGU [G2U U55G] | 0.0565 |
| GUGGGCCACAGCAGAAGCGUUCACGUCGCGGCCCCUGUCAUAUUCUGGUGAAUCUGCGAAUUCUGCUGU [G2U G41U] | 0.0665 |
| GUGGGCCACAGCAGAAGCGUUCACGUCGCGGCCCCUGUCACAUUCUGGUGAAUCUGCGAAUUCUGCUGU [G2U G41C] | 0.0505 |
